A word on the stoichiometry N: it is a count of units in the complex or per binding partner.

In publication PMC8791618 one finds reduction in hydrogen/deuterium exchange of encapsulin peptide 21-37, Loaded-Enc against Empty-Enc and stoichiometry N data, which are given here for two substances.

Assay [1] deals with Haliangium ochraceum encapsulin (Haliangium ochraceum) (UniProt D0LZ74). Briefly: HDX-MS; Empty-Enc against Loaded-Enc nanocompartments; labelling in phosphate buffer in D2O pH 8.0 at 4 C, up to 24 hours; pepsin digestion.
Assay [2] has the same target. Kind of assay: cryo-EM structure; Loaded-Enc; asymmetric (C1) reconstruction without imposed symmetry, 3.7 A; local refinement of a single EncFtn density in CryoSPARC with PDB 5N5F docked. The following applies: scale: EncFtn decamers per encapsulin nanocompartment.
Assay [3] addresses Haliangium ochraceum encapsulated ferritin (Haliangium ochraceum) (UniProt D0LZ73). The description is as above.
Assay [4] has the same target. Kind of assay: SDS-PAGE; purified Loaded-Enc on 15% acrylamide SDS-PAGE, Coomassie blue stain.
Assay [5] has the same target. Briefly: LC-MS; purified Loaded-Enc at ~2 uM on a reverse-phase C4 column, water/acetonitrile with 0.1% formic acid; deconvoluted masses.
For assay [6], the target named is Haliangium ochraceum encapsulin (Haliangium ochraceum) (UniProt D0LZ74). Briefly: cryo-EM structure; Loaded-Enc (3 mg/ml) vitrified; reconstruction with imposed I1 symmetry (2.5 A), then symmetry expansion and masked focused refinement of the fivefold pentamer (closed 2.2 A, open 2.4 A), Relion3.1.

Turning to “Haliangium ochraceum encapsulated ferritin (from UniProt D0LZ73 1-131) (enzyme)”, the reduction in hydrogen/deuterium exchange of encapsulin peptide 21-37, Loaded-Enc against Empty-Enc in assay [1] worked out at 12%. The stoichiometry N in assay [2] worked out at 4; in assay [3], 10; in assay [4], 2; in assay [5], 2.

In assay [6], “Haliangium ochraceum encapsulin (from UniProt D0LZ74 1-266) (natural protein)” yielded a stoichiometry N of 60.
